Legend:
[1] = biological target: T1, human IL-33 (human, Biotinylated in Example 2; the site is not stated.); experiment: cell-based or functional assay
T1 chain: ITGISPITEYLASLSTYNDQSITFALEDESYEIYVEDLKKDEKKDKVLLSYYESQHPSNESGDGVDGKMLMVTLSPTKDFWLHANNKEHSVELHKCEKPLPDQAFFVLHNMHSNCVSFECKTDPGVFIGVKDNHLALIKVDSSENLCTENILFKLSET

[2] = biological target: T1, human IL-33; experiment: cell-based or functional assay
[3] = biological target: T1, human IL-33; experiment: cell-based or functional assay
[4] = biological target: T1, human IL-33; experiment: MSD-SET solution equilibrium titration, 25 C
[5] = biological target: T2, human IL-1a (human, UniProt P01583 113-271); experiment: BLI (Octet RED384), antibody on protein A sensors, single shot
T2 construct: also called IL-1a (R&D Systems #200-LA)
T2 sequence (looked up): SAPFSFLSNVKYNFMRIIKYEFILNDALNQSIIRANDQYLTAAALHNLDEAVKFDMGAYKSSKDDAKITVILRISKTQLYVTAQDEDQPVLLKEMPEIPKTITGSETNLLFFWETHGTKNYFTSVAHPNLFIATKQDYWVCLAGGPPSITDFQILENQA

[6] = biological target: T3, human IL-1b (human, UniProt P01584 117-269); experiment: as above
T3 construct: also called IL-1b (R&D Systems #201-LB)

[7] = biological target: T4, hFcgRI (human, UniProt P12314 16-292); experiment: SPR (ProteOn XPR36), anti-poly-histidine IgG surface, antibody as analyte, equilibrium fit, 25 C
T4 construct: extracellular domain; the chip carried an anti-poly-histidine IgG; also called recombinant soluble human Fc gamma receptor I

[8] = biological target: T5, hFcgRIIa (R131) (human, UniProt P12318 34-217); experiment: as above
T5 construct: extracellular domain
T5 sequence (looked up): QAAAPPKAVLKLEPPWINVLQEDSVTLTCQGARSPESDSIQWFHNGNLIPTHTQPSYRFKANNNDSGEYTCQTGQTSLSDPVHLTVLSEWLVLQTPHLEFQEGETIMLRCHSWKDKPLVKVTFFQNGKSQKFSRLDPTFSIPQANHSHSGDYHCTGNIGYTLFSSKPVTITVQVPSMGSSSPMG

T4 sequence (P12314 16-292): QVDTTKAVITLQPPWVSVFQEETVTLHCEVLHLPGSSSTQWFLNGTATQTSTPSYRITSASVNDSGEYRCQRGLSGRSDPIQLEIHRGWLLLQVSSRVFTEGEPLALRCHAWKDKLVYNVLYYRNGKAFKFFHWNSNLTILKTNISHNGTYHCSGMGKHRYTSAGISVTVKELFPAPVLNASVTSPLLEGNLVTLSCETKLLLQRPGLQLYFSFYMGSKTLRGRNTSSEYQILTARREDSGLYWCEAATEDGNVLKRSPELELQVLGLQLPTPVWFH

B1: 22A06-458 (antibody, human IgG1, kappa)
heavy: QVQLVQSGAEVKKPGASVKVSCKASGYTFISYGMHWVRQAPGQGLEWMGEINPHGGSTSYAQKFKGRVTMTRDTSTSTVYMELSSLRSEDTAVYYCARPSAAYSHYLGIDLWGRGTLVTVSSASTKGPSVFPLAPSSKSTSGGTAALGCLVKDYFPEPVTVSWNSGALTSGVHTFPAVLQSSGLYSLSSVVTVPSSSLGTQTYICNVNHKPSNTKVDKKVEPKSCDKTHTCPPCPAPELLGGPSVFLFPPKPKDTLYITREPEVTCVVVDVSHEDPEVKFNWYVDGVEVHNAKTKPREEQYNSTYRVVSVLTVLHQDWLNGKEYKCKVSNKALPAPIEKTISKAKGQPREPQVYTLPPSRDELTKNQVSLTCLVKGFYPSDIAVEWESNGQPENNYKTTPPVLDSDGSFFLYSKLTVDKSRWQQGNVFSCSVMHEALHNHYTQKSLSLSPGK
light: DIQMTQSPSSVSASVGDRVTITCRASQGISSWLAWYQQKPGKAPKLLIYAASRLQSGVPSRFSGSGSGTDFTLTISSLQPEDFATYYCQQANVFPLTFGGGTKVEIKRTVAAPSVFIFPPSDEQLKSGTASVVCLLNNFYPREAKVQWKVDNALQSGNSQESVTEQDSKDSTYSLSSTLTLSKADYEKHKVYACEVTHQGLSSPVTKSFNRGEC
IC50, inhibition of IL-33 (125 pM) induced IFN-γ secretion from CD4+ T cells, pre-complexed, Mean [1]: 675 pM | IC50, inhibition of IL-33 (125 pM) induced IFN-γ secretion from CD4+ T cells, pre-complexed, N = 1 [1]: 1060 pM | IC50, inhibition of IL-33 (125 pM) induced IFN-γ secretion from CD4+ T cells, pre-complexed, N = 2 [1]: 936 pM | IC50, inhibition of IL-33 (125 pM) induced IFN-γ secretion from CD4+ T cells, pre-complexed, N = 3 [1]: 282 pM | IC50, inhibition of IL-33 (125 pM) induced IFN-γ secretion from CD4+ T cells, pre-complexed, N = 4 [1]: 591 pM | IC50, inhibition of IL-33 (125 pM) induced IFN-γ secretion from CD4+ T cells, pre-complexed, N = 5 [1]: 790 pM | IC50, inhibition of IL-33 (125 pM) induced IFN-γ secretion from CD4+ T cells, pre-complexed, N = 6 [1]: 497 pM | IC50, inhibition of IL-33 (125 pM) induced IFN-γ secretion from CD4+ T cells, pre-complexed, N = 7 [1]: 574 pM | pIC50, inhibition of IL-33 (125 pM) induced IFN-γ secretion from CD4+ T cells, pre-complexed, Mean [1]: 9.2 | pIC50, inhibition of IL-33 (125 pM) induced IFN-γ secretion from CD4+ T cells, pre-complexed, N = 1 [1]: 8.97 | pIC50, inhibition of IL-33 (125 pM) induced IFN-γ secretion from CD4+ T cells, pre-complexed, N = 2 [1]: 9.02 | pIC50, inhibition of IL-33 (125 pM) induced IFN-γ secretion from CD4+ T cells, pre-complexed, N = 3 [1]: 9.54 | pIC50, inhibition of IL-33 (125 pM) induced IFN-γ secretion from CD4+ T cells, pre-complexed, N = 4 [1]: 9.22 | pIC50, inhibition of IL-33 (125 pM) induced IFN-γ secretion from CD4+ T cells, pre-complexed, N = 5 [1]: 9.1 | pIC50, inhibition of IL-33 (125 pM) induced IFN-γ secretion from CD4+ T cells, pre-complexed, N = 6 [1]: 9.3 | pIC50, inhibition of IL-33 (125 pM) induced IFN-γ secretion from CD4+ T cells, pre-complexed, N = 7 [1]: 9.24 | IC50, inhibition of IL-33 (5.0 nM) induced β-hexosaminidase release from basophils, pre-complexed, Mean [2]: 2.03 nM | IC50, inhibition of IL-33 (5.0 nM) induced β-hexosaminidase release from basophils, pre-complexed, donor #33235 [2]: 1.39 nM | IC50, inhibition of IL-33 (5.0 nM) induced β-hexosaminidase release from basophils, pre-complexed, donor #90290 [2]: 4.53 nM | IC50, inhibition of IL-33 (5.0 nM) induced β-hexosaminidase release from basophils, pre-complexed, donor #90356 [2]: 1.23 nM | IC50, inhibition of IL-33 (5.0 nM) induced β-hexosaminidase release from basophils, pre-complexed, donor #90541 [2]: 0.97 nM | pIC50, inhibition of IL-33 (5.0 nM) induced β-hexosaminidase release from basophils, pre-complexed, Mean [2]: 8.78 | pIC50, inhibition of IL-33 (5.0 nM) induced β-hexosaminidase release from basophils, pre-complexed, donor #33235 [2]: 8.86 | pIC50, inhibition of IL-33 (5.0 nM) induced β-hexosaminidase release from basophils, pre-complexed, donor #90290 [2]: 8.34 | pIC50, inhibition of IL-33 (5.0 nM) induced β-hexosaminidase release from basophils, pre-complexed, donor #90356 [2]: 8.91 | pIC50, inhibition of IL-33 (5.0 nM) induced β-hexosaminidase release from basophils, pre-complexed, donor #90541 [2]: 9.01 | IC50, inhibition of 1 ng/mL human IL-33 induced IL-6 production, mouse bone marrow-derived mast cells [3]: 0.0312 nM | IC50, inhibition of 1 ng/mL human IL-33 induced IL-13 production, mouse bone marrow-derived mast cells [3]: 0.028 nM | IC50, inhibition of 1 ng/mL human IL-33 induced IL-18 production, mouse bone marrow-derived mast cells [3]: 0.0613 nM | IC50, inhibition of 1 ng/mL human IL-33 induced TNF-α production, mouse bone marrow-derived mast cells [3]: 0.0374 nM | pIC50, inhibition of 1 ng/mL human IL-33 induced IL-6 production, mouse bone marrow-derived mast cells [3]: 10.5 | pIC50, inhibition of 1 ng/mL human IL-33 induced IL-13 production, mouse bone marrow-derived mast cells [3]: 0.55 | pIC50, inhibition of 1 ng/mL human IL-33 induced IL-18 production, mouse bone marrow-derived mast cells [3]: 10.2 | pIC50, inhibition of 1 ng/mL human IL-33 induced TNF-α production, mouse bone marrow-derived mast cells [3]: 10.4 | Kd [4]: 0.0033 nM | binding result [5]: no binding (tested: 100 nM) | binding result [6]: no binding (tested: 100 nM) | Kd [7]: 24.3 nM | Kd [8]: 502 nM

From patent US20260167710A1 (GlaxoSmithKline, published 2026)
